Test [1] deals with YU2 gp120, soluble monomer (HIV-1 isolate YU2 (clade B), UniProt P35961 32-498). The experiment in a line: BLI. (Biolayer interferometry detects binding as a change in optical thickness at a sensor tip.)
Test [2] has as its target T1, YU2 gp140-foldon trimer (HIV-1 isolate YU2 (clade B) | ). The experiment in a line: BLI.
In test [3] the target is T1, YU2 gp140-foldon trimer. The experiment in a line: SPR. On the technique in general: In SPR one partner is held on a chip, and binding of the other changes the refractive index at the surface.

Positions count from the first letter of the chain named.

B1: GEBT404, mature IgG (antibody, V domains shown)
VH: EVQLVESGGGLAKPGGSLRLSCAASGFTFSNYWMYWVRQAPGKGLEWISAINSAGSRTYYPDSVKGRFTISRENAKNTLYLQMDSLRAEDTAVYYCAKGRIAIFGLVITYFDYWGQGVLVTVSS
VL: DIQMTQSPSSLSASVGDRVTITCRASQGITNDLAWYQQKPGETPKLLIYDASSLQSGIPSRFSGSGSGTDFTLTISSLQPEDFATYYCQHYYSTPPTFGGGTKVEIK
What is called Kd is a measure of binding affinity in units of concentration. Low readings indicate tighter binding, high ones weaker binding. In test [1], B1 gave an equilibrium dissociation constant (Kd) of 43 nM.

B2: GEBT404, inferred germline (igL) reverted IgG (antibody, V domains shown)
VH: B1 VH with Y35H, R57S, P61A, S85G
VL: B1 VL with R24Q, D50E, P80S
On to B2, for which the affinity in test [1], expressed as Kd, was 56 nM.

B3: GEBT412, mature IgG (antibody, V domains shown)
VH: QVQLVESGGGLVQPGGSLRLACAASGFIFSNHGMHWVRQAPGKGLEWVAVIWYDGSEKYYADSVKDRFTISRDNSKNMLYLQMNNLKLVDTAVYYCARRGCTGSGCYLYYYGLDSWGQGVVVTVSS
VL: DIQMTQSPSSLSASVGDTVTITCRASQGISSHLNWFQQKPGKAPKLLIYAATTLQSGVPSRFSGSGSGTDFTLTISSLQPEDFATYYCLQHNFYPYSFGQGTKVEIK
Turning to B3, in test [1], the affinity, expressed as Kd, was 11 nM.

B4: GEBT412, inferred germline (igL) reverted IgG (antibody, V domains shown)
VH: B3 VH with A21S, I28T, N31S, H32Y, E57K, V89E
VL: B3 VL with H32Y, T52S, T53S, Q55E, D70E
For B4, the affinity in test [1], expressed as Kd, was 104 nM.

B5: GEBT391, inferred germline (igL) reverted IgG (antibody, V domains shown)
VH: B3 VH with Q1E, A21S, I28T, N31S, H32Y, E57K, V89E, G112A
VL: B3 VL with H32Y, T52S, T53S, Q55E, D70E
On to B5, for which the Kd in test [1] was 118 nM.

B6: GEBT391, mature IgG (antibody, V domains shown)
VH: B3 VH with A21S, I28T, N31S, H32Y, Y53F, A61V, V89D, G112A
VL: B3 VL with H32Y
In test [1], B6 returned a Kd of 6 nM.

B7: GEBT414, mature IgG (antibody, V domains shown)
VH: EVQLVQSGAEVKRPGESLRISCKTSGYSFTGSWISWVRQMPGKGLDWMGNIYPGDSDTRYNPSFQGHVTISADKSISTTYLQWSSLKASDTATYYCAKGGGITIFGLLHYPLDSWGQGVVVTVSS
VL: DIQMTQSPSSLSASVGDTVTITCRASQGINNWLAWYQQKPGKAPKLLIYKASSLQSGVPSRFSGSGSGTDFTLTISSLQSEDFATYYCQQYNSGPLTFGGGTKVEIK
Consider B7, for which, in test [1], the affinity, expressed as Kd, was 24 nM.

B8: GEBT414, inferred germline (igL) reverted IgG (antibody, V domains shown)
VH: B7 VH with D46E, N50S
VL: DIQMTQSPASLSASVGDRVTITCQASQGISSWLAWYQQKPGKAPKLLLYKAPGLQSGVPSMFSGSGSGTEFTLTISSLQPEDFATYYCQQYNSGPLTFGGGTKVEIK
On to B8, for which the Kd in test [1] came out at 63 nM.

B9: GEBT403, inferred germline (igL) reverted IgG (antibody, V domains shown)
VH: QVQLVQSGAEVKKPGSSVKVSCKASGYTFTDYYMHWVRQAPGQGLEWMGEINPKTGGTNYAQKFQGRVTMTRDTSTSTAYMELSSLRSEDTAVYYCARGGQRLIPLRRFYFYYWGQGVLVTVSS
VL: QSVLTQPPSVSGAPGQKVTISCTGSSSNIGGYDVHWYQQLPGMAPKLLIYDNNERPSGISDRFSGSKSATSASLAITGLQTEDEADYYCQSYDSSMNAWVFGGGTRLTVL
In test [1], B9 gave a Kd of 11 nM.

B10: GEBT403 mature Fab (Fab, V domains shown)
VH: B9 VH with Q1E, V93I, Y95S
VL: B9 VL with A69G
In the case of B10, the dissociation constant (Kd) in test [2] stood at 5 nM; in test [3] it was 7 nM.

B11: GEBT403, mature IgG (antibody, V domains shown)
VH: B9 VH with Q1E, V93I, Y95S
VL: B9 VL with A69G
B11 had a dissociation constant Kd in test [1] of 13 nM.

B12: GEBT403 igL-reverted Fab (Fab, V domains shown)
VH: B9 VH
VL: B9 VL
In test [2], B12 returned a Kd of 2 nM.

The values above are taken from publication PMC4754655 (2016).
